Results as given in PMC5147862 (PLoS ONE, 2016).

B1: RAS association (RA) domain of RASSF5, MBP fusion (domain or fragment, human, UniProt Q8WWW0 200-358, looked up)
chain: EETQRPPTLQEIKQKIDSYNTREKNCLGMKLSEDGTYTGFIKVHLKLRRPVTVPAGIRPQSIYDAIKEVNLAATTDKRTSFYLPLDAIKQLHISSTTTVSEVIQGLLKKFMVVDNPQKFALFKRIHKDGQVLFQKLSIADRPLYLRLLAGPDTEVLSFV
notes: human RASSF5, RA domain, aa 200-358; also called RASSF5-RA
B2: RRAS2 (or TC21), mGppNHp-bound (natural protein, human, UniProt P62070 1-204, looked up)
chain: MAAAGWRDGSGQEKYRLVVVGGGGVGKSALTIQFIQSYFVTDYDPTIEDSYTKQCVIDDRAARLDILDTAGQEEFGAMREQYMRTGEGFLLVFSVTDRGSFEEIYKFQRQILRVKDRDEFPMILIGNKADLDHQRQVTQEEGQQLARQLKVTYMEASAKIRMNVDQAFHELVRVIRKFQEQECPPSPEPTRKEKDKKGCHCVIF
notes: human RRAS2 (TC21); Loaded with mGppNHp; That the RAS proteins are the ones made with pGEX is surmised; also called RRAS2-mGppNHp
B3: RAS association (RA) domain of PLCε, MBP fusion (domain or fragment, human, UniProt Q9P212 2130-2240, looked up)
chain: LSSEEESFFVQVHDVSPEQPRTVIKAPRVSTAQDVIQQTLCKAKYSYSILSNPNPSDYVLLEEVVKDTTNKKTTTPKSSQRVLLDQECVFQAQSKWKGAGKFILKLKEQVQ
notes: human PLCε, RA domain (RA2), aa 2130-2240; also called PLCε-RA2
B4: RRAS1, mGppNHp-bound (natural protein, human, UniProt P10301 1-218, looked up)
chain: MSSGAASGTGRGRPRGGGPGPGDPPPSETHKLVVVGGGGVGKSALTIQFIQSYFVSDYDPTIEDSYTKICSVDGIPARLDILDTAGQEEFGAMREQYMRAGHGFLLVFAINDRQSFNEVGKLFTQILRVKDRDDFPVVLVGNKADLESQRQVPRSEASAFGASHHVAYFEASAKLRLNVDEAFEQLVRAVRKYQEQELPPSPPSAPRKKGGGCPCVLL
notes: human RRAS1 (R-Ras); Loaded with mGppNHp; That the RAS proteins are the ones made with pGEX is surmised

Experiments:
Assay in all cases: fluorescence polarisation; MBP-tagged effector domain (0.05-100 μM) titrated to 1 μM RAS-mGppNHp; 50 mM Tris/HCl pH 7.5, 100 mM NaCl, 5 mM MgCl2, 3 mM dithiothreitol, 25°C; quadratic ligand binding equation
Settings in all cases: both partners purified
NRAS, mGppNHp-bound = target: T1, NRAS, mGppNHp-bound (human, UniProt P01111 1-189)
T1 construct: human NRAS; Loaded with mGppNHp; That the RAS proteins are the ones made with pGEX is surmised
T1 sequence (P01111 whole entry): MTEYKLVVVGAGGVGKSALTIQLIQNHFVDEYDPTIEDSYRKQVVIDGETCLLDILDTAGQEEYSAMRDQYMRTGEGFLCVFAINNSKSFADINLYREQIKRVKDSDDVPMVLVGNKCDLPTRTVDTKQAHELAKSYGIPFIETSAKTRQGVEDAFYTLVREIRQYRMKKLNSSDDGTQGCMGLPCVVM

RRAS1, mGppNHp-bound = target: B4
HRAS, mGppNHp-bound = target: T2, HRAS, mGppNHp-bound (human, UniProt P01112 1-189)
T2 construct: human HRAS; Loaded with the fluorescent non-hydrolysable GTP analog mant-GppNHp (mGppNHp); That the RAS proteins are the ones made with pGEX is surmised

[1] = target: B2
[2] = target: T3, RAS binding (RB) domain of PI3Kα, MBP fusion (human, UniProt P42336 169-301)
T3 construct: human PI3Kα, RB domain, aa 169-301; also called PI3Kα-RB
T3 sequence (P42336 169-301): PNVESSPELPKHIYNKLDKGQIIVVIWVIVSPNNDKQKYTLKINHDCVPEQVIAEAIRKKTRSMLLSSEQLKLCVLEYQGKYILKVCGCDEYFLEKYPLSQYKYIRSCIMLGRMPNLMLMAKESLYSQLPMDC

Binder	Kd (NRAS, mGppNHp-bound) [µM]	Kd (RRAS1, mGppNHp-bound) [µM]	Kd (HRAS, mGppNHp-bound) [µM]	Kd [1] [µM]	Kd [2] [µM]
B1	0.442	11.5	0.238	10	–
B2	–	–	–	–	18.1
B3	–	114	–	145	–
B4	–	–	–	–	11
